Biological target: the molecule itself
Test: crystal structure; HD domain (113-626) H206R/D207N constructs, 4 mg/ml, with 4 mM dGTP; microbatch under oil; 100 mM succinic acid-phosphate-glycine buffer, 30% PEG1500; tetramer

Protein | stoichiometry N
SAMHD1 (113-626) H206R/D207N/R366C (domain or fragment, UniProt Q9Y3Z3 113-626, looked up, Crystallised with 4 mM dGTP; also called R366C (crystal construct); SAMHD1 HD/RN R366C) DTMKVINDPIHGHIELHPLLVRIIDTPQFQRLRYIKQLGGGYYVFPGASHNRFEHSLGVGYLAGCLVHALGEKQPELQISERDVLCVQIAGLCRNLGHGPFSHMFDGRFIPLARPEVKWTHEQGSVMMFEHLINSNGIKPVMEQYGLIPEEDICFIKEQIVGPLESPVEDSLWPYKGRPENKSFLYEIVSNKRNGIDVDKWDYFARDCHHLGIQNNFDYKRFIKFARVCEVDNELRICARDKEVGNLYDMFHTCNSLHRRAYQHKVGNIIDTMITDAFLKADDYIEITGAGGKKYRISTAIDDMEAYTKLTDNIFLEILYSTDPKLKDAREILKQIEYRNLFKYVGETQPTGQIKIKREDYESLPKEVASAKPKVLLDVKLKAEDFIVDVINMDYGMQEKNPIDHVSFYCKTAPNRAIRITKNQVSQLLPEKFAEQLIRVYCKKVDRKSLYAARQYFVQWCADRNFTKPQDGDVIAPLITPQKKEWNDSTSVQNPTRLREASKSRVQLFKDDPM | 4
SAMHD1 (113-626) H206R/D207N/R366H (domain or fragment, UniProt Q9Y3Z3 113-626, looked up, Crystallised with 4 mM dGTP; also called R366H (crystal construct); SAMHD1 HD/RN R366H) DTMKVINDPIHGHIELHPLLVRIIDTPQFQRLRYIKQLGGGYYVFPGASHNRFEHSLGVGYLAGCLVHALGEKQPELQISERDVLCVQIAGLCRNLGHGPFSHMFDGRFIPLARPEVKWTHEQGSVMMFEHLINSNGIKPVMEQYGLIPEEDICFIKEQIVGPLESPVEDSLWPYKGRPENKSFLYEIVSNKRNGIDVDKWDYFARDCHHLGIQNNFDYKRFIKFARVCEVDNELRICARDKEVGNLYDMFHTHNSLHRRAYQHKVGNIIDTMITDAFLKADDYIEITGAGGKKYRISTAIDDMEAYTKLTDNIFLEILYSTDPKLKDAREILKQIEYRNLFKYVGETQPTGQIKIKREDYESLPKEVASAKPKVLLDVKLKAEDFIVDVINMDYGMQEKNPIDHVSFYCKTAPNRAIRITKNQVSQLLPEKFAEQLIRVYCKKVDRKSLYAARQYFVQWCADRNFTKPQDGDVIAPLITPQKKEWNDSTSVQNPTRLREASKSRVQLFKDDPM | 4

From PMC8497992, “Structural and functional characterization explains loss of dNTPase activity of the cancer-specific R366C/H mutant SAMHD1 proteins” (The Journal of Biological Chemistry, 2021)
